# B1: unnamed (protein)
# chain: MAVMTPRRERSSLLSRALQVTAAAATALVTAVSLAAPAHAANPYERGPNPTDALLEASSGPFSVSEENVSRLSASGFGGGTIYYPRENNTYGAVAISPGYTGTEASIAWLGERIASHGFVVITIDTITTLDQPDSRAEQLNAALNHMINRASSTVRSRIDSSRLAVMGHSMGGGGTLRLASQRPDLKAAIPLTPWHLNKNWSSVTVPTLIIGADLDTIAPVATHAKPFYNSLPSSISKAYLELDGATHFAPNIPNKIIGKYSVAWLKRFVDNDTRYTQFLCPGPRDGLFGEVEEYRSTCPF
# B2: unnamed (protein)
# chain: MNFPRASRLMQAAVLGGLMAVSAAATAQTNPYARGPNPTAASLEASAGPFTVRSFTVSRPSGYGAGTVYYPTNAGGTVGAIAIVPGYTARQSSIKWWGPRLASHGFVVITIDTNSTLDQPSSRSSQQMAALRQVASLNGTSSSPIYGKVDTARMGVMGWSMGGGGSLISAANNPSLKAAAPQAPWDSSTNFSSVTVPTLIFACENDSIAPVNSSALPIYDSMSRNAKQFLEINGGSHSCANSGNSNQALIGKKGVAWMKRFMDNDTRYSTFACENPNSTRVSDFRTANCS
# B3: unnamed (protein)
# chain: MDGVLWRVRTAALMAALLALAAWALVWASPSVEAQSNPYQRGPNPTRSALTADGPFSVATYTVSRLSVSGFGGGVIYYPTGTSLTFGGIAMSPGYTADASSLAWLGRRLASHGFVVLVINTNSRFDYPDSRASQLSAALNYLRTSSPSAVRARLDANRLAVAGHSMGGGGTLRIAEQNPSLKAAVPLTPWHTDKTFNTSVPVLIVGAEADTVAPVSQHAIPFYQNLPSTTPKVYVELDNASHFAPNSNNAAISVYTISWMKLWVDNDTRYRQFLCNVNDPALSDFRTNNRHCQ
# Substrate: BHET
# Settings: 50 °C
Protein,Km [µM],kcat [s⁻¹],kcat/Km [M⁻¹ s⁻¹]
B1,230,1.1,4780
B3,960,6.2,6460

# Substrate: MHET
# Settings: 50 °C
Protein,Km [µM],kcat [s⁻¹],kcat/Km [M⁻¹ s⁻¹]
B1,3800,0.043,11.3
B3,1200,0.048,40

# Substrate: PET-02mer
# Settings: 50 °C
Protein,Km [µM],kcat [s⁻¹],kcat/Km [M⁻¹ s⁻¹]
B1,170,62,365000
B3,790,300,380000

# Substrate: BHET
# Settings: 50 °C; part of the chain shown
Protein,Km [µM],kcat [s⁻¹],kcat/Km [M⁻¹ s⁻¹]
B2,1400,4.8,3430

# Substrate: PET-02mer
# Settings: 50 °C; part of the chain shown
Protein,Km [µM],kcat [s⁻¹],kcat/Km [M⁻¹ s⁻¹]
B2,58,23,397000

# Source: the PETadex activity labels (doi:10.1002/cbic.202200516)
